The test system of data set [1] is PTB. Put plainly: Gene expression profiling, Affymetrix HG-U133 plus 2 oligonucleotide arrays. It is filed as cell-based. The following applies: A2780/PTBsi3 cells treated with DOX. How it is done:
Microarray analyses of genome-wide splicing patterns and gene expression profiling were performed in A2780/PTBsi3 cells with or without PTB knockdown. Gene expression profiling was assessed using Affymetrix HG-U133 plus 2 oligonucleotide arrays, and the splicing pattern was assessed by Jivan Biologics' splicing-sensitive microarrays. The former analysis was done three times and the latter was done twice with total RNAs isolated from separate experiments. We also examined the gene expression profile once in the control subline, A2780/LUCsi, grown with or without DOX.
However, in A2780/PTBsi3 cells treated with DOX (i.e. PTB knockdown), 52 genes were found consistently changed more than 2-fold in all three separate experiments. […] In total, we found 50 genes whose expression was regulated by PTB. […] We have validated these changes in a few of these genes (INHBE, CDC42, PTBP2 and PKP4) by real-time PCR or conventional RT-PCR.

The test system of data set [2] is A2780 sublines. Put plainly: Tumor growth in xenograft mouse model. The following applies: subcutaneous A2780 sublines; DOX 2 mg/ml in drinking water from inoculation or 12 days after; FIG. 3. Type of data set: in vivo, Athymic nu/nu mice. The text has this: siRNA technology was .used to knock down the expression of PTB in tumor cells and to examine the effects of such manipulations on cell growth and malignant properties. Three siRNA (PTBsi1, PTBsi2, and PTBsi3) sequences targeting different regions of PTB mRNA were used. A siRNA can be generated as described in PCT/US2007/007352, which is herein fully incorporated by reference. Each of PTBsi1, PTBsi2, and PTBsi3 may be generated in a cell from a shRNA, which is formed after transcription of its coding sequence. The annealing of two oligonucleotides generates a DNA fragment with protruding ends compatible with Hind III and Bgl II restriction enzyme sites respectively. The coding sequences for each siRNA were cloned individually into a lentiviral vector downstream of H1 promoter and tetO element and thus the expression of these siRNAs is under control of doxycycline (DOX) (i.e. induced by DOX). We established several stable sublines carrying these expression cassettes. […] We have also examined whether knockdown of PTB could influence ovarian tumor cell growth in xenograft mouse model. […] Invasive cells were counted under microscope with high magnification (150×). […] Tumor sizes were measured in long and short dimensions every three or four days. Tumor size was calculated with formula axb2/2, where a=long dimension and b=short dimension. […]

B1: PTBsi3: siRNA targeting PTB mRNA, DOX-induced, generated in a cell from shRNA3 (SEQ ID NO: 5 and 6) (nucleic acid)
chain 1: GATCCCTGACAAGAGCCGTGACTACTTCAAGAGAGTAGTCACGGCTCTTGTCATTTTTGGAAA
chain 2: AGCTTTTCCAAAAATGACAAGAGCCGTGACTACTCTCTTGAAGTAGTCACGGCTCTTGTCAGGG
Regarding B1, in data set [1] (all three experiments), the PTB downregulation result is listed as “about 4 fold”. In addition, the “genes consistently changed more than 2-fold” value in data set [1] (three separate experiments, signal intensity cutoff 200) is reported as 52 genes. In addition, the tumor growth result in data set [2] was “grew slower”.

B2: PTBsi1: siRNA targeting PTB mRNA, DOX-induced, generated in a cell from shRNA1 (SEQ ID NO: 1 and 2) (nucleic acid)
chain 1: GATCCCCAGGTGACAGCCGAAGTGCATTCAAGAGATGCACTTCGGCTGTCACCTTTTTTGGAAA
chain 2: AGCTTTTCCAAAAATGCACTTCGGCTGTCACCTTCTCTTGAAAGGTGACAGCCGAAGTGCAGGG
As to B2, the tumor growth result in data set [2] is listed as “grew slower”.
